Two molecules from patent publication US20220357317A1 (NATIONAL UNIVERSITY COMORATION HOKKAIDO UNIVERSITY, published 2022) can be followed below.

Assay [1] addresses T1, reduced form of HD5 (HD5 without any intramolecular disulfide bond) (human, no intramolecular disulfide bonds (reduced form)).
T1 construct: Chemically synthesized mature HD5 before the oxidation treatment; also called r-HD5
T1 peptide: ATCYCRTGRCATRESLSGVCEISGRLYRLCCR
The experiment in a line: sandwich ELISA, capture 12-1 (1 mg/ml) with detection 39E-7 (0.5 mg/ml), antigen 0 to 60 ng/ml.

Assay [2] addresses T2, oxidized form of human α-defensin HD5 (HD5 with three intramolecular disulfide bonds) (human, six cysteine residues form three intramolecular disulfide bonds (oxidized form)).
T2 construct: Chemically synthesized mature HD5 (32 amino acids), oxidized and purified by reverse-phase chromatography; confirmed by MALDI-TOF MS; also called ox-HD5; DEFA5
T2 peptide: T1 peptide
The experiment in a line: indirect ELISA screening, plate coated with 1 µg/ml ox-HD5, hybridoma supernatant. On the procedure: Autoimmune disease mice (C3H/HeJJmsSlc-lpr/lpr available from Japan SLC, Inc.) injected with an adjuvant according to a conventional method were immunized with ox-HD5 by three times of intra-abdominal injection (0.2 mg each time). Later, cells were collected from the spleen of the immunized mice according to a conventional method, and then fused with a mouse myeloma cell line P3U1 with use of 50% polyethylene glycol 1500 (Sigma-Aldrich Co. LLC) to prepare hybridomas. Each hybridoma clone was screened by indirect ELISA, and subcloned four times by a limiting dilution method.
The indirect ELISA was carried out by the following procedures. Wells of a flat-bottomed microtiter plate (Nunc) were coated with 1 μg/ml of ox-HD5 dissolved in Ca²⁺/Mg²⁺-free phosphate buffered saline (PBS), and then incubated overnight at 4° C. After three times of washing with PBS containing 0.1% Tween 20 (PBS-T), culture supernatant from each hybridoma clone was added to the wells, and incubated at 37° C. for 1 hour. […] 100 μL of 3,3′,5,5′-tetramethylbenzidine (TMB) substrate buffer (KPL) was added to each well, then the plate was incubated at 25° C. for 30 minutes, and then absorbance at 405 nm was measured with use of a microplate reader Multiscan FC (Thermo Scientific).
(In general: ELISA stands for enzyme-linked immunosorbent assay.)

Assay [3] has as its target T2, oxidized form of human α-defensin HD5 …. In words: sandwich ELISA, capture 12-1 (1 mg/ml) with detection 39E-7 (0.5 mg/ml).

B1: monoclonal antibody 12-1 (antibody, V domains shown)
VH: QVQLQQSGAELARPGASVKLSCKASGYTFTSYGISWVKQRTGQGLEWIGEIYPRSGNTYYNEKFKGKATLTADKSSSTAYMQLSSLTSEDSAVYFCARDYDGFPYFDYWGQGTTLTVSS
VL: DIVLTQSPASLAVSLGQRATISCRASESVDSYGYSFMHWYQQKPGQPPKLLIYRASNLESGIPARFSGSGSRTDFTLTINPVEADDVATYYCQQSNEDPRTFGGGTKLEIK
notes: constant regions are not; Immobilized on the plate as capture antibody in the sandwich ELISA; also called capture antibody 12-1; anti-ox-HD5 monoclonal antibody according to a)
As to B1, the binding result in assay [1] and in assay [2] was “binds” throughout.

B2: monoclonal antibody 39E-7 (antibody, V domains shown)
VH: EVQLQQSGPELVKPGASVKISCKASGYSFTGSYMNWVKQSPEKSLEWIGEINPSTGGTTHNQKFKAKATLTVDTSSSTFYMQLKSLTSEDSAVYYCARDYAGSYDWYFDVWGAGTTVTVSS
VL: DIKMTQSPSSMYASLGERVTITCKASQDINSYLSWFQQKPGKSPKTLIYRANRLVDGVPSRFSGSGSGQDYSLTISSLEYEDMGIYYCLQYDEFPYTFGGGTKLEII
notes: constant regions are not; also called detection antibody 39E-7; anti-ox-HD5 monoclonal antibody according to b)
Turning to B2, the binding result in assay [3] and in assay [1] was “binds” throughout.
